Our source for the amyloid nucleation score values is the supplement of paper PMC12042874.

± gives the uncertainty stated by the source.

This series can be described thus: amyloid nucleation score (Sup35N fusion, yeast selection) (log enrichment); library NNK3; higher = more nucleation; inactive = no reads after selection. An outline of the steps: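 On medium lacking adenine and uracil, psi-negative yeast expressing peptides of 20 random codons fused to Sup35N were grown 7 days at 30°C after a 24-hour induction with 100 μM copper sulfate. Illumina sequencing of input and output plasmid inserts gave the reads, and sequences under 100 input reads were excluded. The nucleation score is the DiMSum log enrichment of output over input reads, centred on the mode score of non-aggregating sequences.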

As for YSGIAS, the amyloid nucleation score result was “inactive”. The substance EMLSIENGRFTKCKLGECVR gave an amyloid nucleation score of -0.137 ± 0.52.

QSQLGPDCRSYTGGERVLDV: the amyloid nucleation score entry was “inactive”. In the case of VFNFPQSDGNRSYMDFMAIQ, the amyloid nucleation score entry was “inactive”. Regarding FLFILPDNGPRWCSYTVGNV, the amyloid nucleation score result was “inactive”.

Turning to ILCCTCYLRDIDMVVGACDG, the amyloid nucleation score worked out at 1.62 ± 0.063. The result for GRRMWCCREAHRSNDQV reads 1.28 ± 0.11; that for SYVWYRNGM, “inactive”; that for WIPTPVLCGRPNFYFY, “inactive”. The result for KRFGKMLLW reads “inactive”. The result for DRGSMSHILASVSTFNVYIS reads 1.2 ± 0.1; that for AVWTCIGWDERTKMLYKFIR, “inactive”; that for EFFYINAMPVLYIDPYTSCF, “inactive”. Regarding SAQNYTL, the amyloid nucleation score result was “inactive”. Consider VISIPHGSAIRTCIVITMSL, for which the amyloid nucleation score entry is “inactive”. The same measure for LFEPVIEILI: “inactive”. For VEGRCPLNH, the amyloid nucleation score result is “inactive”.

In the case of VEDLMF, the amyloid nucleation score result is “inactive”. The result for FYFYSVCYYGRWIKKPCHLR reads “inactive”; that for ELGHSKSTMFNVYYVVWSRC, “inactive”. The result for IFNNLTGFNNKGS reads “inactive”. For LGNIGVELVDRCDRYIYQPD, the amyloid nucleation score amounted to 0.627 ± 0.2.

On to HTWSCCYFLS, for which the amyloid nucleation score was 2.54 ± 0.063. The same measure for SVDVYRSCEVGKCGGSYSTF: “inactive”. The same measure for LKCSLLYCRCRPGYQIAGT: “inactive”; for LYGGTAFLLSFCVAE: “inactive”. The result for LKVLVD reads “inactive”; that for CYSLFSLPMKALRSISVRCW, 1.52 ± 0.13; that for SRPLEMVLLLSWWIMSRKIP, “inactive”. Substance FCCHYSKLFRR gave an amyloid nucleation score of 0.641 ± 0.41. The same measure for FGTMSSGYAGGNKKFHPHRY: “inactive”; for LCRYRNSYICSGNIIWMCSL: “inactive”.

On to GSKLICIVWLFLLFG, for which the amyloid nucleation score result is “inactive”. The same measure for RRRGNKAFHPLQ: “inactive”; for CVYFGRVNFTVGLLPSLNGF: 1.46 ± 0.14; for AWFVEKLLCDLHSPSAVGAG: -0.565 ± 1.5. The same measure for LYYNYRGGYVYKNRDEVTLF: “inactive”; for YDLRAALKV: “inactive”; for RWSNYMFDRQLY: -1.2 ± 1.8. The same measure for KKFGSYEWSRI: “inactive”; for SWGNHYLRGLICYFLLFTDT: “inactive”; for QSLLSSLLGSYSRLEKLNVD: “inactive”. Take CIVRIVQST: the amyloid nucleation score entry is “inactive”. The result for FRPGLYSYMPSC reads -0.451 ± 0.88; that for VYCLSHNCMITSDNVRSIIF, “inactive”. The result for CYLNQSKYAARWNCGDNKME reads “inactive”; that for STRFMVIFDGISSVIGAIYG, “inactive”; that for TTSCEVAWFEICLSSLNFTM, “inactive”. Consider RVLVHYEVGFSENSRWGSVD, for which the amyloid nucleation score stood at 0.481 ± 0.32. For the substance HLWVNRDQWLVVLTEFSRFW, the amyloid nucleation score result was “inactive”. The same measure for YGHSRWSKISHRSSACLFGS: “inactive”; for CDVHTGRCDSCYTGNSTKFG: “inactive”. With SSYFYHNVILPTHIYNFSVI, the amyloid nucleation score was 2.27 ± 0.08. The result for VCANLSWPFLSNTLLFVCLG reads “inactive”. The result for RLLLMIL reads “inactive”; that for YLVSLRLVYSNILEFVKRVC, “inactive”; that for RQVTLARWTISIC, “inactive”. The same measure for DIQYWYTPVTKMTYSTNWFF: 1.26 ± 0.1.

In the case of TIHSRMGIVLYFFAIDCVR, the amyloid nucleation score result is “inactive”. The same measure for GQPTICKDGYSMLLNEFSRS: “inactive”; for SRFKMICSRDRLNNRSVVLG: “inactive”. The substance FPSVIINLGISFFLSSELIV showed an amyloid nucleation score of 1.08 ± 0.11. The same measure for SSMAVQRGGNYITMIYGH: “inactive”; for ESGNS: “inactive”; for WNLYRFLNW: “inactive”.

Take LARQFF: the amyloid nucleation score entry is “inactive”. The same measure for ALQYGNHRGCSYGCMITFVR: “inactive”; for TFSVYADETSKRTVFTVMIW: “inactive”; for FCALALTQMLINMAH: “inactive”.

With TNLSSSFLTQLRVILMSFLG, the amyloid nucleation score was determined as 0.798 ± 0.2. The same measure for AILCTIVCNASWAEEQSA: 1.09 ± 0.17; for KLICVRTDWWSCVIISRFSL: “inactive”; for LHGWFLNLLIFYAMRLRSVL: “inactive”. The same measure for KSFRIMMLRSWMLRLLKYQL: “inactive”.

On to IRRCPGMKVCWLYLKC, for which the amyloid nucleation score result is “inactive”.

Take IVSYSGRNRDAHLKSS: the amyloid nucleation score entry is “inactive”. The result for DIYFTSESSVYIVHWFLFRH reads “inactive”; that for EVCLGVSGRHGANSVVIDWT, “inactive”; that for TFFWTRCDIVGREWVSNTVN, “inactive”.

For the substance MLYVLSYWLLKMPQMLNVNP, the amyloid nucleation score entry is “inactive”. The same measure for TFLELSIMYGRVTCNSLY: -0.259 ± 0.8; for RRSYTFRSVGKEWNIAYWYI: “inactive”; for LWRLRAIWVNNVMAVRKFVG: -0.68 ± 1.

In the case of ILWSILVYLTLITVLCLCHF, the amyloid nucleation score turned out to be 0.444 ± 0.26. The same measure for FRASVPPEVLPKFARVGMNA: “inactive”. Turning to VAIIAYQWSIPSMAGPVNRR, the amyloid nucleation score was determined as 0.652 ± 0.28.

In the case of FETGCW, the amyloid nucleation score result is “inactive”. The result for LYMYLGRVCMWHLRCHKRYN reads “inactive”; that for LGCSVTTVSV, “inactive”.

Turning to FICFFGYS, the amyloid nucleation score result was “inactive”. The same measure for INLLVSVKGWYYVAPTAWYE: 1.16 ± 0.15; for VSEMCIMSCTHIVGDCSWIR: “inactive”. The result for AIYKGSWEPFGIDA reads “inactive”.

Consider KRSSA, for which the amyloid nucleation score result is “inactive”.

With ELSACCYAMSWMVDCVRASL, the amyloid nucleation score was determined as 1.34 ± 0.1. The same measure for YLISNVFIVLSVDLCDVLGL: 2.44 ± 0.072; for LMVSREFWCSLSKV: “inactive”; for YLINPVEVD: “inactive”.

With DACSVNEMSYVDTAGIWVWR, the amyloid nucleation score result was “inactive”.

Regarding RMRSWMGCGRHCLWRHLEEL, the amyloid nucleation score entry was “inactive”. The result for VRLYADNNLSAITKLLCPKN reads “inactive”.

On to SYSVSCTDGWSIVFMFSHIA, for which the amyloid nucleation score result is “inactive”. The result for YCSCMLTGNMGRSH reads -0.032 ± 0.33; that for ETWEIGRSKMGHRDCFCNYM, “inactive”; that for FQSDRVCFIGGWTSNRVGWM, 0.699 ± 0.28. The same measure for CVLAFVVVLLGWGHSSGAGG: 0.825 ± 0.2. On to RRLQV, for which the amyloid nucleation score result was “inactive”. The same measure for SLLMYCRNTVSMSNNLSRHR: 1.39 ± 0.11; for ISCGYSYGTRRFS: “inactive”. The result for FLGVNNNSVVNLYELCD reads “inactive”; that for FTCDTMKYSSRYSLFYVRVS, 0.205 ± 0.77; that for VRLRVEYAKSEWKMIFGEFY, “inactive”.

For the substance FNDNVVVVSDNVVRRITSKS, the amyloid nucleation score entry is “inactive”. For RSQALFLNWTCDCGGYINQI, the amyloid nucleation score was found to be 1.01 ± 0.21. The result for MWVNATSSV reads “inactive”; that for EMLGHHVGSLINRRVITVLR, “inactive”. The result for LKNGLYYHHYFTFLMAYIHQ reads “inactive”. The result for YILSTLAFFGDRNYDMVLGC reads “inactive”; that for MDSLGW, “inactive”. NWVVFFTYMAHHE: the amyloid nucleation score came out at 0.166 ± 0.26. YGLTVCTTGLVFNNWMGSMV yielded an amyloid nucleation score of 1.83 ± 0.11. The same measure for CKTIKVVLAALGFCYPQYSL: “inactive”; for AWYKFVGRVMRDPYMEARLA: “inactive”; for NTSYSRMVCSKG: “inactive”. The same measure for ARWNAI: “inactive”.

As to HNETKLCSHMLGVMGKNCGE, the amyloid nucleation score entry is “inactive”. The result for GRISAKSVVTSWRGVGPYSV reads “inactive”.

As for PYTTLYSFRNC, the amyloid nucleation score entry was “inactive”. The same measure for WADIIKMGDVHVVDYYRKER: “inactive”. Substance SFNRISIFYVNWCTAMNFVY gave an amyloid nucleation score of 1.13 ± 0.093. The same measure for EILRMCH: “inactive”. The same measure for LNCQYTFHAKCSFLHPSLL: 0.928 ± 0.21.
